Experimental data from patent US10400030B2.

Biological target: IL-17RA Fc fusion protein (human) (UniProt Q96F46)
Assay: BIAcore T200, IL-17RA Fc fusion captured on protein G surface, single-cycle kinetics

fold improved affinity against clone 2.1: 5 fold
B1: clone 2.2 VH (VHH)
VHH: QVQLVQSGAEVKKPGASVKVSCKASGYPFTSYDINWVRQATGRSLEWMGWMNPTNGNTVYAQKFQDRVTMTRNTSISTAYMELSSLRSEDTAVYFCARGRRDDWKNNYWGQGTLVTVSS
